± gives the standard deviation of the averaged measurements.
Assay: total protein half-life in vivo (active degradation + dilution); higher = more stable protein
[1] = E. coli NCM3722 delta-clpP delta-lon delta-hslV, growth: N-lim chemostat, doubling time 6 h
[2] = E. coli NCM3722 delta-clpP, growth: N-lim chemostat, doubling time 6 h
[3] = E. coli NCM3722 delta-hslV, growth: N-lim chemostat, doubling time 6 h
[4] = E. coli NCM3722 delta-lon, growth: N-lim chemostat, doubling time 6 h
[5] = E. coli NCM3722 delta-smpB, growth: N-lim chemostat, doubling time 6 h
[6] = wild type E. coli NCM3722, growth: C-lim chemostat, doubling time 3 h
[7] = wild type E. coli NCM3722, growth: C-lim chemostat, doubling time 6 h
[8] = wild type E. coli NCM3722, growth: C-lim chemostat, doubling time 12 h
[9] = wild type E. coli NCM3722, growth: N-lim chemostat, doubling time 6 h
[10] = wild type E. coli NCM3722, growth: N-lim chemostat, doubling time 12 h
[11] = wild type E. coli NCM3722, growth: P-lim chemostat, doubling time 6 h
[12] = wild type E. coli NCM3722, growth: P-lim chemostat, doubling time 12 h

## MRRVNILCSFALLFASHTSLAVTYPLPPEGSRLVGQSFTVTVPDHNTQPLETFAAQYGQGLSNMLEANPGADVFLPKSGSQLTIPQQLILPDTVRKGIVVNVAEMRLYYYPPDSNTVEVFPIGIGQAGRETPRNWVTTVERKQEAPTWTPTPNTRREYAKRGESLPAFVPAGPDNPMGLYAIYIGRLYAIHGTNANFGIGLRVSQGCIRLRNDDIKYLFDNVPVGTRVQIIDQPVKYTTEPDGSNWLEVHEPLSRNRAEYESDRKVPLPVTPSLRAFINGQEVDVNRANAALQRRSGMPVQISSGSRQMF
[1]
  total protein half-life in vivo: 5.58 ± 1.1 h
[2]
  total protein half-life in vivo: 6.17 ± 0.48 h
[3]
  total protein half-life in vivo: 5.997 ± 0.037 h
[4]
  total protein half-life in vivo: 6.9 ± 1 h
[5]
  total protein half-life in vivo: 5.83 ± 0.5 h
[6]
  total protein half-life in vivo: 3.35 ± 0.46 h
[7]
  total protein half-life in vivo: 5.64 ± 0.53 h
[8]
  total protein half-life in vivo: 10.128 ± 0.0088 h
[9]
  total protein half-life in vivo: 6.43 ± 0.88 h
[10]
  total protein half-life in vivo: 11.4 ± 0.34 h
[11]
  total protein half-life in vivo: 5.24 ± 0.69 h
[12]
  total protein half-life in vivo: 11.3 ± 0.51 h

## MAVAANKRSVMTLFSGPTDIYSHQVRIVLAEKGVSFEIEHVEKDNPPQDLIDLNPNQSVPTLVDRELTLWESRIIMEYLDERFPHPPLMPVYPVARGESRLYMHRIEKDWYTLMNTIINGSASEADAARKQLREELLAIAPVFGQKPYFLSDEFSLVDCYLAPLLWRLPQLGIEFSGPGAKELKGYMTRVFERDSFLASLTEAEREMRLGRS [P0ACA3]
[1]
  total protein half-life in vivo: 5.94 ± 0.21 h
[2]
  total protein half-life in vivo: 5.92 ± 0.064 h
[3]
  total protein half-life in vivo: 5.87 ± 0.5 h
[4]
  total protein half-life in vivo: 6.44 ± 0.27 h
[5]
  total protein half-life in vivo: 5.54 ± 0.15 h
[6]
  total protein half-life in vivo: 2.919 ± 0.029 h
[7]
  total protein half-life in vivo: 5.9 ± 0.62 h
[8]
  total protein half-life in vivo: 10.9 ± 0.67 h
[9]
  total protein half-life in vivo: 5.8 ± 0.29 h
[10]
  total protein half-life in vivo: 11.6 ± 0.58 h
[11]
  total protein half-life in vivo: 5.85 ± 0.11 h
[12]
  total protein half-life in vivo: 13.5 ± 1.2 h

## MPFTLGQRWISDTESELGLGTVVAVDARTVTLLFPSTGENRLYARSDSPVTRVMFNPGDTITSHDGWQMQVEEVKEENGLLTYIGTRLDTEESGVALREVFLDSKLVFSKPQDRLFAGQIDRMDRFALRYRARKYSSEQFRMPYSGLRGQRTSLIPHQLNIAHDVGRRHAPRVLLADEVGLGKTIEAGMILHQQLLSGAAERVLIIVPETLQHQWLVEMLRRFNLRFALFDDERYAEAQHDAYNPFDTEQLVICSLDFARRSKQRLEHLCEAEWDLLVVDEAHHLVWSEDAPSREYQAIEQLAEHVPGVLLLTATPEQLGMESHFARLRLLDPNRFHDFAQFVEEQKNYRPVADAVAMLLAGNKLSNDELNMLGEMIGEQDIEPLLQAANSDSEDAQSARQELVSMLMDRHGTSRVLFRNTRNGVKGFPKRELHTIKLPLPTQYQTAIKVSGIMGARKSAEDRARDMLYPERIYQEFEGDNATWWNFDPRVEWLMGYLTSHRSQKVLVICAKAATALQLEQVLREREGIRAAVFHEGMSIIERDRAAAWFAEEDTGAQVLLCSEIGSEGRNFQFASHMVMFDLPFNPDLLEQRIGRLDRIGQAHDIQIHVPYLEKTAQSVLVRWYHEGLDAFEHTCPTGRTIYDSVYNDLINYLASPDQTEGFDDLIKNCREQHEALKAQLEQGRDRLLEIHSNGGEKAQALAESIEEQDDDTNLIAFAMNLFDIIGINQDDRGDNMIVLTPSDHMLVPDFPGLSEDGITITFDREVALAREDAQFITWEHPLIRNGLDLILSGDTGSSTISLLKNKALPVGTLLVELIYVVEAQAPKQLQLNRFLPPTPVRMLLDKNGNNLAAQVEFETFNRQLNAVNRHTGSKLVNAVQQDVHAILQLGEAQIEKSARALIDAARNEADEKLSAELSRLEALRAVNPNIRDDELTAIESNRQQVMESLDQAGWRLDALRLIVVTHQ
[1]
  total protein half-life in vivo: 5.68 ± 0.18 h
[2]
  total protein half-life in vivo: 5.48 ± 0.61 h
[3]
  total protein half-life in vivo: 5.139 ± 0.024 h
[4]
  total protein half-life in vivo: 5.36 ± 0.42 h
[5]
  total protein half-life in vivo: 5.21 ± 0.39 h
[6]
  total protein half-life in vivo: 3.11 ± 0.088 h
[7]
  total protein half-life in vivo: 6.26 ± 0.79 h
[8]
  total protein half-life in vivo: 12.5 ± 1.6 h
[9]
  total protein half-life in vivo: 5.09 ± 0.06 h
[10]
  total protein half-life in vivo: 9.51 ± 1.1 h
[11]
  total protein half-life in vivo: 6.156 ± 0.013 h
[12]
  total protein half-life in vivo: 12.1 ± 1.1 h

## MKKNSYLLSCLAIAVSSACHAEVLTYPDPLGSSQSDFGGTGLLQMPNARIAPEGEFSVNYRDNDQYRFYSTSVALFPWLEGTIRYTDVRTRKYSQWEDFSGDQSYKDKSFDFKLRLWEEGYWLPQVAFGKRDIAGTGLFDGEYLVASKQAGPFDFTLGMAWGYAGNAGNITNPFCRVSDKYCHRAESHDAGDISFSDIFRGPASIFGGIEYQTPWNPLRLKLEYDGNNYQNDFAGKLPQASHFNVGAVYRAASWADLNLSYERGNTLMFGFTLRTNFNDLRPALRDTPKPAYQPAPESEGLQYTTVANQLTALKYNAGFDAPEIQLRDKTLYMSGQQYKYRDSREAVDRANRILVNNLPQGVEKISVTQKREHMAMVTTETDVASLRKQLAGTAPGQSEPLQQQRVEAEDLSAFGRGYRIREDRFSYSFNPTLSQSLGGPEDFYMFQLGLMSSARYWFTDHLLLDGGIFTNIYNNYDKFKSSLLPADSTLPRVRTHIRDYVRNDVYLNNLQANYFADLGNGFYGQVYGGYLETMYAGVGSELLYRPLDACWALGVDVNYVKQRDWDNMMRFTDYSTPTGFVTAYWNPPTLNGVLMKLSVGQYLAKDKGATIDVAKRFDSGVAVGVWAAISNVSKDDYGEGGFSKGFYISIPFDLMTIGPNRNRAVVSWTPLTRDGGQMLSRKYQLYPMTAEREVPVGQ
[1]
  total protein half-life in vivo: 4.97 ± 0.12 h
[3]
  total protein half-life in vivo: 6.08 ± 0.65 h
[6]
  total protein half-life in vivo: 3.09 h
[8]
  total protein half-life in vivo: 10.3 h
[9]
  total protein half-life in vivo: 6.71 h
[12]
  total protein half-life in vivo: > 16 h
